The record followed here is US20030177513A1.

The assay addresses thrombin. The assay is described as follows: cell-based or functional assay.

Consider “recombinant human Antithrombin III (ATIII) in the milk of the cloned transgenic goat CFF6-1 (from UniProt P01008 33-464)”, for which the ATIII activity by thrombin inhibition (two-stage colorimetric endpoint assay), milk at day 5 amounted to 20.5 U/ml and the ATIII activity by thrombin inhibition (two-stage colorimetric endpoint assay), milk at day 9 came to 14.6 U/ml.
